Laboratory results from US20220411531A1 (SUMGEN MAB BEIJING BIOTECH, published 2022).
Where a chain is given by its changes, count along the chain named. Each block holds one binder with its values, some of them ahead of it.

Legend:
[1] = biological target: T1, AXL on the surfaces of human tumour cells (A549, MDA-MB-231, 786-O) (human, UniProt P30530 27-894); assay: flow cytometry on MDA-MB-231 cells (second experiment, FIG. 9); MDA-MB-231 cells; FIG. 9
T1 construct: Endogenous AXL on human tumour cell lines; The tie to the cell-line protein rests on this general definition only; also called cell surface antigen
T1 sequence: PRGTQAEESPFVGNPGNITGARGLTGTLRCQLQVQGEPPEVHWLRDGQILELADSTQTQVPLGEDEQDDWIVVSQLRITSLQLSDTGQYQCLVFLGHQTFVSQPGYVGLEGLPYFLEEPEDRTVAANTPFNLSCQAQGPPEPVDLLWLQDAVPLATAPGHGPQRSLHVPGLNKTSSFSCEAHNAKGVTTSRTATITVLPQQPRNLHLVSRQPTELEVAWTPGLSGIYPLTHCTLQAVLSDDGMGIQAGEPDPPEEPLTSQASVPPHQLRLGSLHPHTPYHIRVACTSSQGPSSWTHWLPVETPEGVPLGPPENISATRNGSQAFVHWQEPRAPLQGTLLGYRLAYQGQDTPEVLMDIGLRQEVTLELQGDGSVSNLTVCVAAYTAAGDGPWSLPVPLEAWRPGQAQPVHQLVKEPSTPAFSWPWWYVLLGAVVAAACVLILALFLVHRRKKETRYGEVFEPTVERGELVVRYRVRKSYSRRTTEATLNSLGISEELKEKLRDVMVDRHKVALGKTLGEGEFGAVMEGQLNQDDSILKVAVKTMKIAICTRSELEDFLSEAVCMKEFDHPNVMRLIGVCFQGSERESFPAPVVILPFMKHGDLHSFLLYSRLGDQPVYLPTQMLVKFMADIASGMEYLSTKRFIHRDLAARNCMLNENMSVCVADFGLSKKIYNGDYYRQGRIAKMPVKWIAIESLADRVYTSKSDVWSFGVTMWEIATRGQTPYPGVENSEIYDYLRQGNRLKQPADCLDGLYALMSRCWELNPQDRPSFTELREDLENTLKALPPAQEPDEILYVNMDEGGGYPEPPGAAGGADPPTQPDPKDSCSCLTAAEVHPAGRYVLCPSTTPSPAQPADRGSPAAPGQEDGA
Procedure: (§1) Cells in a logarithmic growth phase were collected; the cell density was regulated to 5×10⁶ cells/mL; and pre-cooling was performed on ice. The antibodies 6G12M11, 6G12M21, 6G12M31, and 6G12M41 were diluted to 20 μg/ml with pre-cooled normal saline containing 2% FBS. 100 μl of cells were taken, and an equal volume of each of the foregoing diluted antibodies was added to the cells to react for 30 minutes at 4° C. in the dark. After the completion of reaction, the cells were washed twice with pre-cooled physiological saline containing 2% FBS (6000 rpm, 45 s). The secondary antibody PE Mouse Anti-Human IgG (BD Pharmingen) was diluted at 1:5 with pre-cooled physiological saline containing 2% FBS, and 100 μL of the secondary antibody was taken for resuspending the cells, with a reaction conducted for 30 minutes at 4° C. in the dark. After the reaction, the cells were washed twice with pre-cooled physiological saline containing 2% FBS (6000 rpm, 45 s). The cells were resuspended by using 400 μl of 1% paraformaldehyde. The binding of antibodies to cell surface antigens was analyzed by means of a flow cytometer (BD Calibur).

[2] = biological target: T1, AXL on the surfaces of human tumour …; assay: flow cytometry on 786-O cells (second experiment, FIG. 10); 786-O cells; FIG. 10
Procedure: as §1

[3] = biological target: T2, TYRO3-Fc (ACRO Biosystems) (UniProt Q06418 41-428, limits assumed); assay: ELISA, TYRO3-Fc coated at 1 µg/ml, anti-human IgG Fab-HRP, OD450
T2 construct: Bought reagent; also called TRYO3; not shown: Fc part
T2 sequence (looked up): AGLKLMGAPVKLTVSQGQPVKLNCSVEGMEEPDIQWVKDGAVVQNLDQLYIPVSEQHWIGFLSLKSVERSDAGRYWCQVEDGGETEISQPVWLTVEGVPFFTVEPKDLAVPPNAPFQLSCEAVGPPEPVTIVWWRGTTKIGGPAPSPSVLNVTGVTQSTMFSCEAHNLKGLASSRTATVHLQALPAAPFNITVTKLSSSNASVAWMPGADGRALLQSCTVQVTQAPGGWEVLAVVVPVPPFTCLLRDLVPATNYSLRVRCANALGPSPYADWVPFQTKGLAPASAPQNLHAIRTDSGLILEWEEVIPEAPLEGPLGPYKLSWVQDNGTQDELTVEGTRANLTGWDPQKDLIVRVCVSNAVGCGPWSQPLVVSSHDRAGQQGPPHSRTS
Procedure: TYRO3-Fc (ACRO Biosystems), MER-His (ACRO Biosystems), and AXL-His (Sino Biological Inc.) each were coated at 1 μg/ml on an ELISA strip, which was held at 4° C. overnight. After the ELISA strips were washed with PBST, 10% fetal bovine serum was added to the ELISA strip, which was blocked for 1 hour at 37° C. Antibodies […], 6G12M21, 6G12M31 and 6G12M41 were added to react at 37° C. for 1 hour. After the ELISA strips were washed with PBST, horseradish peroxidase-labeled goat anti-human IgG Fab secondary antibodies (Goat Anti-Human IgG (Fab′)₂ (HRP), Abcam) were added to react for 30 minutes at 37° C. The ELISA strips were washed 5 times with PBST, and patted and dried on absorbent paper to remove residual droplets as much as possible. 100 μl of TMB (eBioscience, #85-00-420) was added to each well, and the ELISA strips were held for 1.5 min at room temperature (20±5° C.) in the dark. 100 μl of 2N H₂SO₄ stop solution was added to each well to terminate substrate reaction. The OD value was read at 450 nm by a microplate reader to analyze the binding ability of antibodies to the proteins.

[4] = biological target: T1, AXL on the surfaces of human tumour …; assay: flow cytometry on A549 cells
Procedure: as §1

[5] = biological target: T1, AXL on the surfaces of human tumour …; assay: flow cytometry on MDA-MB-231 cells
Procedure: as §1

[6] = biological target: T1, AXL on the surfaces of human tumour …; assay: flow cytometry on 786-O cells
Procedure: as §1

[7] = biological target: T1, AXL on the surfaces of human tumour …; assay: flow cytometry on MDA-MB-231 cells (second experiment, FIG. 9); MDA-MB-231 cells; second experiment, FIG. 9
Procedure: as §1

EC50 [7]: 0.64 µg/mL
EC50 [4]: 0.78 µg/mL
EC50 [5]: 0.39 µg/mL
EC50 [6]: 0.31 µg/mL
B3: antibody 6G12M21 (antibody, human IgG1, kappa, V domains shown)
VH: QVQLVQSGPGLVKPSQSLSLTCSVTGFSISSGYYWNWIRQFPGQKLEWMGYRSYDGSNNYNPSLKNRISITRDTSKNQFFLKLNSVTSEDTATYYCARGWLLHYTMDYWGQGTTVTVSS
VL: DIVMTQSPSSVSVTLGQSASISCRSSRSLLHSNGFTYLYWYLQKPGQSPQLLIYQMSNLASGVPDRFSGSGSGTDFTLKISRVEAEDVGVYYCGQNLELPLTFGGGTKLEIKR

EC50 [1]: 0.54 µg/mL
EC50 [2]: 0.47 µg/mL
B4: antibody 6G12M41 (antibody, V domains shown)
VH: B3 VH with N61G
VL: DIVMTQSPSSVSVTLGQSASISCRSSRSLLHSNGFTYLYWYLQKPGQSPQLLIYQMSNLASGVPDRFSGSGSGTDFTLKISRVEAEDVGVYYCGQNLELPLTFGGGTKLEIK

Second part, the binder before the results:

B1: antibody 6G12M31 (antibody, V domains shown)
VH: B3 VH with N61D
VL: B4 VL
EC50 [1]: 0.6 µg/mL
EC50 [2]: 0.53 µg/mL

B2: antibody 6G12M11 (antibody, human IgG1, kappa, V domains shown)
VH: B3 VH with S23A
VL: B3 VL with D1E
binding result [3]: no binding (tested: about 1 µg/mL)
EC50 [4]: 0.46 µg/mL
EC50 [5]: 0.59 µg/mL
EC50 [6]: 0.43 µg/mL
